Reference: patent publication US20090297501A1 (Chugai, published 2009)
Numbering of substitutions follows the chain as printed. Like-named read-outs stand apart in the source and are kept apart here. One block for each binder: values may come before it.

Columns and labels:
[1] = biological target: T1, human Mpl (human, UniProt P40238 26-635); assay: cell-based or functional assay
T1 sequence (looked up): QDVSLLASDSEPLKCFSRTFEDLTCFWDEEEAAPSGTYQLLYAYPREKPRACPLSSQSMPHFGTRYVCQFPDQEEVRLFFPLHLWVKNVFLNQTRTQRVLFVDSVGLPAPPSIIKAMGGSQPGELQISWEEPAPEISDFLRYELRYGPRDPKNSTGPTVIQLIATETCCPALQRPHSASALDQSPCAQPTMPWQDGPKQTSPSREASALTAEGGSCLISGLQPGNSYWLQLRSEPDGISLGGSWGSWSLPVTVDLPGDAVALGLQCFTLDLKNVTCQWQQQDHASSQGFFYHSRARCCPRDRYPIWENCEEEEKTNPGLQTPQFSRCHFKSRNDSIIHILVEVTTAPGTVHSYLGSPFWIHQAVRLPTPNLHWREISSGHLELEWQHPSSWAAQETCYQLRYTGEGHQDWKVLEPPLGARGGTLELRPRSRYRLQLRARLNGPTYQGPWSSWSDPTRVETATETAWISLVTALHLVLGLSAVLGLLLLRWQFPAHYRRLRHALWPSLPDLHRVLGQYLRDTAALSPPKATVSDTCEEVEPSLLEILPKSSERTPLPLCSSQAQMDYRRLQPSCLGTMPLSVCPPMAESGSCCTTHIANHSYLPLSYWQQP

[2] = biological target: monkey Mpl (monkey); assay: cell-based or functional assay
[3] = biological target: Mpl on the BaF3 cells used in FIG. 33 (human or monkey, not stated); assay: cell-based or functional assay
[4] = biological target: T1, human Mpl; assay: cell-based or functional assay; remark: listed apart in the source
[5] = biological target: monkey Mpl (monkey); assay: cell-based or functional assay; remark: listed apart in the source
[6] = biological target: T1, human Mpl; assay: cell-based or functional assay; remark: listed apart in the source
[7] = biological target: monkey Mpl (monkey); assay: cell-based or functional assay; remark: listed apart in the source
[8] = biological target: T2, fusion protein of GST and MG10 (Gln213 to Ala231 in the amino acid sequence of human Mpl) (human, UniProt P40238 213-231); assay: Biacore 3000, MG10-GST amine-coupled on CM5, sc(Fv)2 as analyte, bivalent analyte model, n = 3
T2 construct: the parts follow the printed name MG10-GST; also called MG10-GST fusion protein; not shown: glutathione S-transferase (GST)
Procedure: The binding activities of hVB22B u2-wz4 sc(Fv)2, and peak 1 and peak 2 separated from hVB22B u2-wz4 sc(Fv)2 were evaluated as described below. Sensor Chip CM5 Biacore) was placed in Biacore 3000 (Biacore), and a fusion protein of MG10 (Gln213 to Ala231 of human Mpl) and GST described in Section 2-1 was immobilized onto the chip by the amine-coupling method. HSS-EP Buffer (Biacore) was used as the running buffer for the measurement. The flow rate was 20 μl/min. Six concentrations of each of humanized VB22B u2-wz4 sc(Fv)2 bulk, peak 1, and peak 2 within about 5 to 150 nM were prepared using HBS-EP Buffer. Each of the samples was injected over the above-described MG10-immobilized cell for 2 minutes to reveal the binding region. Then, the measurement was conducted for 2 minutes to reveal the dissociation region. VB22B sc(Fv)2 bound to the MG10-GST fusion protein was removed by injecting 20 mM HCl for 1 minute to recover the immobilized cell. The association rate constant (ka) and dissociation rate constant (kd) were calculated from the obtained sensorgram using the BIAevaluation Version 3.1 ([…]) software applying the bivalent analyte model.

B1: anti-human Mpl antibody VB22B sc(Fv)2 peak 2 (single chain diabody type structural isomer) (scFv)
chain: QVQLQQSGPELVKPGASVKISCKASGYAFTNSWMNWVKQRPGKGLEWIGRIYPGDGETIYNGKFRVKATLTADKSSSTAYMDISSLTSEDSAVYFCARGYDDYSFAYWGQGTLVTVSAGGGGSGGGGSGGGGSDIVMTQAAPSIPVTPGESVSISCRSSKSLLHSNGNTYLYWFLQRPGQSPQLLIYRMSNLASGVPDRFSGSGSGTAFTLRISRVEAEDVGVYYCMQHIEYPFTFGSGTKLEIKGGGGSGGGGSGGGGSQVQLQQSGPELVKPGASVKISCKASGYAFTNSWMNWVKQRPGKGLEWIGRIYPGDGETIYNGKFRVKATLTADKSSSTAYMDISSLTSEDSAVYFCARGYDDYSFAYWGQGTLVTVSAGGGGSGGGGSGGGGSDIVMTQAAPSIPVTPGESVSISCRSSKSLLHSNGNTYLYWFLQRPGQSPQLLIYRMSNLASGVPDRFSGSGSGTAFTLRISRVEAEDVGVYYCMQHIEYPFTFGSGTKLEIK
EC50 (read off the curve) (growth of BaF3-human Mpl cells, WST-8) [A] [1]: ~0.008 nM
EC50 (read off the curve) (growth of BaF3-monkey Mpl cells, WST-8) [B] [2]: ~0.02 nM
EC50 (read off the curve) (growth of Mpl-expressing BaF3 cells, WST-8; cell line not stated) [3]: ~0.6 ng/mL

B2: anti-human Mpl antibody VB22B sc(Fv)2 (scFv)
chain: B1 chain
EC50 (read off the curve) (growth of BaF3-human Mpl cells, WST-8) [A] [1]: ~0.01 nM
EC50 (read off the curve) (growth of BaF3-monkey Mpl cells, WST-8) [B] [2]: ~0.03 nM

B4: hVB22B u2-wz4 sc(Fv)2 peak 1 (bivalent scFv type structural isomer) (scFv)
chain: QVQLVQSGPEVKKPGASVKVSCKASGYTFTNSWMNWVRQRPGKGLEWIGRIYPGDGETIYNGKFRVRVTITADESTSTAYMQLSSLRSEDTAVYYCARGYDDYSFAYWGQGTTVTVSSGGGGSGGGGSGGGGSDIVMTQSPLSLPVTPGEPASISCRSSKSLLHSNGNTYLYWFLQKPGQSPQLLIYRMSNLASGVPDRFSGSGSGTDFTLKISRVEAEDVGVYYCMQHIEYPFTFGQGTKLEIKGGGGSGGGGSGGGGSQVQLVQSGPEVKKPGASVKVSCKASGYTFTNSWMNWVRQRPGKGLEWIGRIYPGDGETIYNGKFRVRVTITADESTSTAYMQLSSLRSEDTAVYYCARGYDDYSFAYWGQGTTVTVSSGGGGSGGGGSGGGGSDIVMTQSPLSLPVTPGEPASISCRSSKSLLHSNGNTYLYWFLQKPGQSPQLLIYRMSNLASGVPDRFSGSGSGTDFTLKISRVEAEDVGVYYCMQHIEYPFTFGQGTKLEIK
notes: also called purified u2-wz4 peak 1
EC50 (read off the curve) (growth of BaF3-human Mpl cells, WST-8) [A] [4]: ~0.07 nM
EC50 (read off the curve) (growth of BaF3-human Mpl cells, WST-8) [A] [6]: ~0.09 nM
Kd [8]: 12.4 nM
koff [8]: 0.00727 s⁻¹
kon [8]: 586000 M⁻¹ s⁻¹

The remaining lines, values ahead:

EC50 (read off the curve) (growth of BaF3-human Mpl cells, WST-8) [A] [4]: ~0.04 nM
EC50 (read off the curve) (growth of BaF3-monkey Mpl cells, WST-8) [B] [5]: ~0.04 nM
EC50 (read off the curve) (growth of BaF3-human Mpl cells, WST-8) [A] [6]: ~0.06 nM
EC50 (read off the curve) (growth of BaF3-monkey Mpl cells, WST-8) [B] [7]: ~0.02 nM
Kd [8]: 10.2 nM
koff [8]: 0.00617 s⁻¹
kon [8]: 608000 M⁻¹ s⁻¹
B3: humanized anti-human Mpl antibody hVB22B u2-wz4 sc(Fv)2 (bulk, before separation of the structural isomers) (scFv)
chain: B4 chain
notes: sc(Fv)2, a single chain VH1-linker-VL2-linker-VH3-linker-VL4, not Flag-tagged; also called humanized VB22B u2-wz4 sc(Fv)2 bulk

EC50 (read off the curve) (growth of BaF3-human Mpl cells, WST-8) [A] [4]: ~0.04 nM
EC50 (read off the curve) (growth of BaF3-monkey Mpl cells, WST-8) [B] [5]: ~0.03 nM
EC50 (read off the curve) (growth of BaF3-human Mpl cells, WST-8) [A] [6]: ~0.05 nM
EC50 (read off the curve) (growth of BaF3-monkey Mpl cells, WST-8) [B] [7]: ~0.02 nM
Kd [8]: 9.92 nM
koff [8]: 0.00566 s⁻¹
kon [8]: 571000 M⁻¹ s⁻¹
B5: hVB22B u2-wz4 sc(Fv)2 peak 2 (single chain diabody type structural isomer) (scFv)
chain: B4 chain
notes: also called purified u2-wz4 peak 2

EC50 (read off the curve) (growth of BaF3-human Mpl cells, WST-8) [A] [6]: ~0.04 nM
EC50 (read off the curve) (growth of BaF3-monkey Mpl cells, WST-8) [B] [7]: ~0.04 nM
B6: modified hVB22B u2-wz4(v1) sc(Fv)2 (scFv)
chain: B4 chain with Q39E, Q176E, Q299K, Q436K

EC50 (read off the curve) (growth of BaF3-human Mpl cells, WST-8) [A] [6]: ~0.1 nM
B7: modified hVB22B u2-wz4(v3) sc(Fv)2 (scFv)
chain: B4 chain with Q39E, Q176K, Q299K, Q436E
